Data as given in US20210171576.

Biological target: Untagged human mitochondrial ClpP (HsClpP) (UniProt Q16740)
Sequence (Q16740 other isoform, or with tags, fused parts or gaps): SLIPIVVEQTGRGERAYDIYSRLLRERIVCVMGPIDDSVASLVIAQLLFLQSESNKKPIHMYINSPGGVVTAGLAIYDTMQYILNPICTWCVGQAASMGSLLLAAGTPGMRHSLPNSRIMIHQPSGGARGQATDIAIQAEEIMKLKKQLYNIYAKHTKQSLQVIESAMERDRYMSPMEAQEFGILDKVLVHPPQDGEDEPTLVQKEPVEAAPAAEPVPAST

Chain of Untagged human mitochondrial ClpX (HsClpX) (chain, as listed by the source): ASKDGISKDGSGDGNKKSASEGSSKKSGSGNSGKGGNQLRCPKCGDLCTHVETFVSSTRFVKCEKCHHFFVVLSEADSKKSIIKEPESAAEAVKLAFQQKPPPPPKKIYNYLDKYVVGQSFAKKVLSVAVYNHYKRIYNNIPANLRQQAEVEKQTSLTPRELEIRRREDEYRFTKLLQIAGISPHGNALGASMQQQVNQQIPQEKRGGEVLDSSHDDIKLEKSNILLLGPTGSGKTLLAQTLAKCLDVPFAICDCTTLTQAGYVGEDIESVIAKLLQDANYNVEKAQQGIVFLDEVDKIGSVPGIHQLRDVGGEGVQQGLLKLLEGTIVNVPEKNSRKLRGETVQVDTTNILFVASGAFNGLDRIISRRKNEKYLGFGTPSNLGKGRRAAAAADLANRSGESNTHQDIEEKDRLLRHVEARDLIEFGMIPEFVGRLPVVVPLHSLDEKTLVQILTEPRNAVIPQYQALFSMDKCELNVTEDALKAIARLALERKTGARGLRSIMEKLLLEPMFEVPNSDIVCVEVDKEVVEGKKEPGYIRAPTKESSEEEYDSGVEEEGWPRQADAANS

**Q.** Which results are given for “Untagged human mitochondrial ClpX (HsClpX)”?
**A.** Hill coefficient (h) of casein-FITC degradation by HsClpP with titrated HsClpX: mild positive cooperativity (h=1.25) in HsCIpP-binding; K0.5 (microscopic apparent dissociation constant). Hill fit of initial rates of casein-FITC degradation; HsClpX titrated 0-18 µM against 3 µM HsClpP: a K0.5 of 5.7 µM; Vmax of casein-FITC degradation by HsClpP with titrated HsClpX: a Vmax of 6.88 RFU.s^-1
